The results in this text go back to the supplement of paper PMC10567573.

± gives the standard deviation.

A short description of this data set: protein stability index of a GFP-peptide fusion (GPS, HEK-293T) (PSI 1-6); higher = more stable. The following applies: c terminus: a fixed tail appended.
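Further: 24-mer peptide tiles fused after GFP, lentivirally expressed, FACS-sorted into six equal bins by GFP/DsRed ratio, decoded by Illumina sequencing, PSI is the read-weighted mean bin number.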

The sequence QHQNKSPPKVKAEDGMQCLQLKET [DLC1] came in with a protein stability index (treatment: DMSO) of 5.17 ± 0.47 and a protein stability index (treatment: MLN4924 1 uM, 8 h) of 5.2 ± 0.11.
The like results for QIITVTVQTGLDQYQQVPVEIVKS [IQUB] were, in that order, 2.32 ± 0.17 and 2.07 ± 0.38.
For QKENVFKCDSLKEECIPEHMVRES [FAN1], in that order: 4.56 ± 0.38 and 4.56 ± 0.19.
For QKNFNNLYGTKGNYTSRVWEYSSS [TRIM29], in that order: 2.31 ± 0.4 and 2.51 ± 0.12.
Sequence QKRYHCKECGKVFSQSAGLIQHQR [ZSCAN9] showed a protein stability index (treatment: DMSO) of 3.3 ± 0.35 and a protein stability index (treatment: MLN4924 1 uM, 8 h) of 3.63 ± 0.63.
The like results for QLCDVSIRVQGREFRAHRAVLAAS [ZBTB22] were, in that order, 2.58 ± 0.35 and 2.77 ± 0.3.
Turning to QLILFGLSNQLAVTFREENTIAFR [MCOLN1], the protein stability index runs as follows: (treatment: DMSO) 2.65 ± 0.49; (treatment: MLN4924 1 uM, 8 h) 2.33 ± 0.64.
For QLVLVAAGFDALQGDPKGEMAATP [HDAC6], in that order: 2.75 ± 0.057 and 2.8 ± 0.43.
For QNKAQRQKDLIMKVENLTLKNHFQ [TAF7L], in that order: 3.08 ± 0.28 and 3.1 ± 0.13.
For QPPPQEEPGTPSSSPDDKLLTSPR [KLHL14], the protein stability index worked out at 5.52 ± 0.16 (treatment: DMSO) and 5.48 ± 0.15 (treatment: MLN4924 1 uM, 8 h).
For the sequence QQLAAEPVPTGFFNMWGFGRVSKQ [WDR41], the protein stability index by setting is: (treatment: DMSO) 3.56 ± 0.35; (treatment: MLN4924 1 uM, 8 h) 3.49 ± 0.25.
QQLLHHARNGNAEEVRQLLETMAR [OSBPL1A]: the protein stability index by setting is: (treatment: DMSO) 3.15 ± 0.38; (treatment: MLN4924 1 uM, 8 h) 3.78 ± 0.3.
The like results for QQVKCIITEEKVCMVCKKKIGNSA [VPS39] were, in that order, 3.24 ± 0.4 and 3.6 ± 0.66.
The like results for QRPVSRQVTCLRTQVLEDSEDSFC [TRAF3IP2] were, in that order, 4.68 ± 0.19 and 4.53 ± 0.14.
The sequence QRVGFGDDFDEDELMAELEELEQE [CHMP4C] had a protein stability index (treatment: DMSO) of 5.33 ± 0.4 and a protein stability index (treatment: MLN4924 1 uM, 8 h) of 5.35 ± 0.23.
Regarding QSLDEPGGATFLLTAKQLIKSIVE [TRIM63], the protein stability index by setting is: (treatment: DMSO) 2.6 ± 0.33; (treatment: MLN4924 1 uM, 8 h) 2.32 ± 0.37.
For QSLPCTERKPAATARLSRRGTSLS [KISS1], in that order: 4.71 ± 0.2 and 4.66 ± 0.32.
In the case of QVHRQGERRRELVRSQTLPRTSEA [SMTNL2], the protein stability index stood at 4.957 ± 0.024 (treatment: DMSO) and 4.98 ± 0.16 (treatment: MLN4924 1 uM, 8 h).
The like results for QVYLSHTAWTEACQVEVRLLLAYN [INTS4] were, in that order, 3.15 ± 0.51 and 3.09 ± 0.19.
For RADPLVCATGLLGSAPFLFLSLAC [SPNS1], in that order: 3.37 ± 0.32 and 3.04 ± 0.22.
Regarding RAHPPQRPASSGGAHTLVNHGYAE [KCNA3], the protein stability index reads like this: (treatment: DMSO) 4.12 ± 0.13; (treatment: MLN4924 1 uM, 8 h) 3.94 ± 0.3.
For RAVLKYLYTGELDENERDLMHIAH [RHOBTB2], in that order: 2.34 ± 0.13 and 2.49 ± 0.27.
For RAYGFRGPGPQLRRGWRPSSREDS [CHGA], in that order: 3.9 ± 0.4 and 4.07 ± 0.47.
Regarding RDKAEELLQLPDTKVGSFMIRESE [SLA], the protein stability index (treatment: DMSO) was 4.66 ± 0.37 and the protein stability index (treatment: MLN4924 1 uM, 8 h) is 4 ± 0.79.
The like results for RDLKLCRFVFADRERKKLVLENLE [TRIB3] were, in that order, 2.36 ± 0.23 and 2.51 ± 0.25.
The like results for REQILRVKDTDDVPMILVGNKCDL [RAP1B] were, in that order, 3.95 ± 0.28 and 3.98 ± 0.14.
The like results for REVKVLLDQLRFPNGVQLSPAEDF [APMAP] were, in that order, 2.97 ± 0.4 and 2.95 ± 0.5.
On to RFTRTPVDQTGVSGGVASFICQAT [PTPRD], for which the protein stability index came out at 3.12 ± 0.28 (treatment: DMSO) and 3.19 ± 0.37 (treatment: MLN4924 1 uM, 8 h).
For RFYRSPEVLLGTPYDLAIDMWSLG [DYRK1B], in that order: 1.78 ± 0.42 and 2.29 ± 0.35.
For RGDPLGGCQVSPEGYAHLTHLLMG [HDAC6], in that order: 2.35 ± 0.31 and 2.71 ± 0.47.
RGLHEDLQGVPERLLGTAGTEEKK [VTI1B]: the protein stability index runs as follows: (treatment: DMSO) 5.38 ± 0.07; (treatment: MLN4924 1 uM, 8 h) 5.58 ± 0.26.
For RGRAREREQLQAEASERFAAGYIQ [HES6], in that order: 4.58 ± 0.2 and 4.57 ± 0.1.
The like results for RGSDLKVLEVTEESIDFDQGELAD [FBXO33] were, in that order, 5.42 ± 0.14 and 5.519 ± 0.053.
For RGTHLWEFIRDILIHPELNEGLMK [ELF3], in that order: 2.54 ± 0.59 and 2.31 ± 0.42.
For RHDSETEDMLWDDLLHGPECRSSV [PHTF1], the protein stability index reads like this: (treatment: DMSO) 4.68 ± 0.24; (treatment: MLN4924 1 uM, 8 h) 4.7 ± 0.2.
The like results for RHIFMGYLESETETTEAIDDEGWL [ACSBG2] were, in that order, 4.08 ± 0.27 and 4.13 ± 0.16.
